According to patent US20230088052A1 (JIANGSU HENGRUI PHARMACEUTICALS, published 2023):
Substitutions are numbered along the chain they refer to.

T1: his-tagged mouse IL-4R recombinant protein (m-IL-4R-his) (mouse, UniProt P16382 26-233)
T1 construct: range 26-233; also called Murine IL-4R-his; not shown: his tag
T1 sequence (looked up): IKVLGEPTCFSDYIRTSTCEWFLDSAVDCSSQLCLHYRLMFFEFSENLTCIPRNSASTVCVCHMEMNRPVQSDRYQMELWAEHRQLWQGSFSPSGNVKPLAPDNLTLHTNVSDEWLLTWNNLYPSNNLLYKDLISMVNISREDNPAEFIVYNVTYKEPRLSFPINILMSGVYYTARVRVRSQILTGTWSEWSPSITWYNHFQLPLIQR

B1: Dupilumab (antibody, V domains shown)
VH: EVQLVESGGGLEQPGGSLRLSCAGSGFTFRDYAMTWVRQAPGKGLEWVSSISGSGGNTYYADSVKGRFTISRDNSKNTLYLQMNSLRAEDTAVYYCAKDRLSITIRPRYYGLDVWGQGTTVTVSS
VL: DIVMTQSPLSLPVTPGEPASISCRSSQSLLYSIGYNYLDWYLQKSGQSPQLLIYLGSNRASGVPDRFSGSGSGTDFTLKISRVEAEDVGFYYCMQALQTPYTFGQGTKLEIKR
B2: murine monoclonal antibody 7B10 (antibody, V domains shown)
VH: QVQLQQPGTELLKPGASVSLSCKASGYTFTSYWMHWVKQRPGQGLEWIGLIHPNSDTTKFSENFKTRATLTIDKSSSTAYMKLSSLTSEDSAVYYCAKSKIITTIVARHWYFDVWGTGTTVTVSS
VL: DIVLTQSPPSLAVSLGQRATISCKASQSVDYGGDSYMNWYQQKLGQPPKVLIYAASNLESGIPARFSGSGSGTDFTLNIHPVEEEDVATYYCQHSNENPPTFGGGTKLEIK
notes: also called hybridoma 7B10
B3: murine monoclonal antibody 25G7 (antibody, V domains shown)
VH: EVQLVESGGGLVKPGGSLKLSCAASGFTFSDYGMHWVRQAPEKGLEWVAFISSGSSIIYYADIVKGRSTISRDNAKNTLFLQMTSLRSEDTAMYYCTRGNKRGFFDYWGQGTILTVSS
VL: QIVLTQSPALMSASPGEKVTMTCNASSSVSYMYWYQRKPRSSPKPWIYLTSNLASGVPVRFSGSGSGTSYSLTISSMEAEDAATYYCQQWRSNPPMLTFGSGTKLEVK
notes: also called hybridoma 25G7
B4: human-murine chimeric antibody 7B10-C (antibody, V domains shown)
VH: B2 VH
VL: B2 VL
notes: Expressed in HEK293 cells
B5: human-murine chimeric antibody 25G7-C (antibody, V domains shown)
VH: B3 VH
VL: B3 VL
notes: Expressed in HEK293 cells
B6: humanized antibody hu7B10 (antibody, human IgG1, kappa, V domains shown)
VH: EVQLVQSGAEVKKPGASVKVSCKASGYTFTSYWMHWVRQAPGQGLEWMGLIHPNSDTTKFSENFKTRVTMTIDTSISTAYMELSRLRSDDTAVYYCAKSKIITTIVARHWYFDVWGQGTTVTVSS
VL: DIVLTQTPLSLSVTPGQPASISCKASQSVDYGGDSYMNWYLQKPGQPPQLLIYAASNLESGVPDRFSGSGSGTDFTLKISRVEAEDVGVYYCQHSNENPPTFGGGTKVEIKR
notes: Uses the VH-b heavy chain and the VL-b light chain
B7: humanized antibody hu25G7 (antibody, human IgG4 S228P, kappa, V domains shown)
VH: B3 VH with K13Q, K19R, E42G, T78S, F80Y, T84N, S88A, M93V, I113L, L114V
VL: EIVLTQSPATLSLSPGERATLSCNASSSVSYMYWYQQKPGQAPRLLIYLTSNLASGIPARFSGSGSGTDFTLTISSLEPEDFAVYYCQQWRSNPPMLTFGGGTKVEIKR
notes: Uses the VH-c heavy chain and the VL-a light chain; also called wild-type hu25G7
B8: hu25G7-A antibody (antibody, human IgG4 S228P, kappa, V domains shown)
VH: B3 VH with K13Q, K19R, E42G, F80Y, T84N, S88A, M93V, I113L, L114V
VL: B7 VL with N24R, S30P, S92A, N93Y
B9: hu25G7-B antibody (antibody, human IgG4 S228P, kappa, V domains shown)
VH: B3 VH with K13Q, K19R, E42G, F80Y, T84N, S88A, M93V, I113L, L114V
VL: EIVLTQSPATLSLSPGERATLSCRASPGVPPLAWYQQKPGQAPRLLIYLASSRPSGIPARFSGSGSGTDFTLTISSLEPEDFAVYYCQQWRSNPPMLTFGGGTKVEIKR

target: T2, human IL-4R on cells (HEK-Blue IL-4 cells, TF-1 cells) (human, UniProt P24394 26-825); experiment: cell-based or functional assay

Row | Binder | IC50 for blocking binding of HEK293-Blue IL-4 cells (to IL-4) [µg/mL] | IC50 for inhibiting IL-4-related proliferation of TF-1 cells [µg/mL]
1 | B1 | 0.00507 | 0.102
2 | B2 | 0.0798 | 0.418
3 | B3 | 0.000975 | 0.0513

target: T2, human IL-4R on cells (HEK-Blue IL-4 …); experiment: cell-based or functional assay; remark: another data set of the same source

Row | Binder | Blocking binding of HEK293-Blue IL-4 cells (to IL-4) (IC50) [µg/mL] | Inhibiting IL-4-related proliferation of TF-1 cells (IC50) [µg/mL]
4 | B1 | 0.00324 | 0.207
5 | B4 | 0.00903 | 0.0464
6 | B5 | 0.00202 | 0.0203

target: T2, human IL-4R on cells (HEK-Blue IL-4 …); experiment: cell-based or functional assay; remark: another data set of the same source

Row | Binder | Blocking binding of HEK293-Blue IL-4 cells (to IL-4) (IC50) [µg/mL] | Inhibiting IL-4-related proliferation of TF-1 cells (IC50) [µg/mL]
7 | B1 | 0.000667 | 0.491
8 | B6 | 0.00687 | 0.112
9 | B7 | 0.000943 | 0.0296

target: T2, human IL-4R on cells (HEK-Blue IL-4 …); experiment: cell-based or functional assay; remark: another data set of the same source

Row | Binder | Blocking binding of HEK293-Blue cells (to IL-4) (IC50) [µg/mL] | Blocking binding of HEK293-Blue cells (to IL-13) (IC50) [µg/mL] | Inhibiting IL-4-related proliferation of TF-1 cells (IC50) [µg/mL] | Inhibiting IL-13-related proliferation of TF-1 cells (IC50) [µg/mL]
10 | B1 | 0.0125 | 0.0148 | 0.101 | 0.0181
11 | B8 | 0.00649 | 0.01 | 0.0837 | 0.0132
12 | B9 | 0.0066 | 0.00838 | 0.051 | 0.0137

target: T3, humanized Fc-tagged human IL-4R recombinant protein (h-IL-4R-Fc) (human, UniProt P24394 26-232); experiment: blocking ELISA of human IL-4/IL-4R
T3 construct: range 1-232; The printed range starts at Met1, so it includes the signal peptide of the construct; also called Human IL-4R-Fc; not shown: Fc tag
Description: (§1) Human IL-4R-Fc protein was coated on a 96-well microplate, 100 μL per well at a concentration of 0.5 μg/mL, and incubated overnight at 4° C. The plate was washed three times with washing buffer at 250 μL per well. A blocking solution was added at 200 μL per well and the plate was incubated at room temperature for 2 h. The plate was washed three times with washing buffer at 250 μL per well. Anti-IL-4R antibody to be tested diluted in diluent was added at 100 μL per well, and the plate was incubated at room temperature for 1 h. The plate was washed three times with washing buffer at 250 μL per well. […] HRP-labeled Neutravidin diluted in a diluent at 1:5000 was added, and the plate was incubated at room temperature for 1 h. The plate was washed three times with washing buffer at 250 μL per well. TMB was added at 100 μL per well, and the mixture was reacted for 15 min in the dark. 0.16 M/L sulfuric acid was added at 50 μL per well.

Row | Binder | IC50 [µg/mL]
13 | B8 | 0.144
14 | B9 | 0.108

target: T1, his-tagged mouse IL-4R recombinant …; experiment: ELISA, IL-4R-his coated on the plate

Row | Binder | binding result
15 | B2 | no binding
16 | B3 | no binding

target: T4, his-tagged human IL-4R recombinant protein (h-IL-4R-his) (human, UniProt P24394 26-232); experiment: binding ELISA, human IL-4R-his coated
T4 construct: range 26-232; Made by Acrobiosystems in HEK293; also called Human IL-4R-his; not shown: his tag
Description: ELISA experiment was used to detect binding properties of anti-IL-4R antibodies. A microplate was coated with his-tagged IL-4R recombinant protein. After the antibody was added to each well, the activity of the binding of the antibody to the antigen was detected by adding a secondary antibody (HRP-conjugated anti-primary antibody Fc antibody) and HRP substrate TMB.
Human or rhesus IL-4R-his protein was coated on a 96-well microplate, 100 μL per well at a concentration of 0.5 μg/mL, and incubated overnight at 4° C. The plate was washed three times with washing buffer at 250 μL per well. A blocking solution was added at 200 μL per well and the plate was incubated at room temperature for 2 h. The plate was washed three times with washing buffer at 250 μL per well. Anti-IL-4R antibody to be tested diluted in diluent was added at 100 μL per well. The plate was incubated at room temperature for 1 h. The plate was washed three times with washing buffer at 250 μL per well. HRP-labeled goat anti-human IgG secondary antibody diluted at 1:20000 with diluent was added at 100 μL per well. The plate was incubated at room temperature for 1 h. The plate was washed three times with washing buffer at 250 μL per well. TMB was added at 100 μL per well, and the mixture was reacted for 15 min in the dark. 0.16 M/L sulfuric acid was added at 50 μL per well. The OD value was read at 450 nm by a Thermo MultiSkanFc microplate reader and the binding EC₅₀ value of the anti-IL-4R antibody to IL-4R was calculated.

Row | Binder | EC50 [µg/mL]
17 | B4 | 0.0118
18 | B2 | 0.0458
19 | B6 | 0.012
20 | B3 | 0.00332
21 | B5 | 0.00909
22 | B7 | 0.00341

target: T4, his-tagged human IL-4R recombinant …; experiment: Biacore SPR: antibody captured, IL-4R antigen in flow, 1:1 model
Excerpt: Human antibody capture antibody was covalently coupled to a biosensor chip CMS of Biacore instrument (Biacore X100, GE) according to the method described in the instruction of human antibody capture kit (Cat #BR-1008-39, GE), and thus a certain amount of antibodies to be tested were captured based on affinity. Then a series of concentration gradients of IL-4R antigens (the IL-4R antigens all purchased from Acrobiosystems, Cat #ILR-H5221) flowed through the surface of chip, and the Biacore instrument (Biacore X100, GE) was used to detect the reaction signals in real time to obtain the binding and dissociation curves. After each cycle of dissociation was completed, the biochip was washed and regenerated with a regeneration solution prepared in the human antibody capture kit. The amino coupling kit used in the experiment was purchased from GE corporation (Cat #BR-1000-50, GE), and the buffer was HBS-EP+ 10× buffer solution (Cat #BR-1006-69, GE) diluted to 1× (pH 7.4) with D.I. Water.
The data obtained from the experiment were fitted with BiacoreX100 evaluation software 2.0 GE software with a (1:1) binding model to obtain affinity values.

Row | Binder | Kd [pM]
23 | B4 | 278
24 | B6 | 284
25 | B5 | 725
26 | B7 | 1070

target: T3, humanized Fc-tagged human IL-4R …; experiment: blocking ELISA: human IL-4R-Fc coated, antibody blocks the binding of IL-4
Description: as §1

Row | Binder | IC50 [µg/mL]
27 | B4 | 0.162
28 | B2 | 0.0299
29 | B6 | 0.0753
30 | B3 | 0.00813
31 | B5 | 0.0397
32 | B7 | 0.0236
